Assay results published in PMC5650612, “Enhancing Tropane Alkaloid Production Based on the Functional Identification of Tropine-Forming Reductase in Scopolia lurida, a Tibetan Medicinal Plant” (Frontiers in Plant Science, 2017).

Test system: CN1[C@@H]2CC[C@H]1CC(=O)C2
Experiment: purified protein
Settings: pH 6.4

SlTRI (Anisodus luridus)
Km: 40.90 ± 7.059 mM
Vmax: 1.95 µmol/min/mg
kcat/Km: 24 M⁻¹ s⁻¹
